{"source": "patent US20230035798A1", "about": "(CAPELLA BIOSCIENCE, published 2023)", "binders": {"B1": {"name": "3B04 (antibody, human IgG4, V domains shown)", "VH": "QVQLQQPGAELVRPGASVTLSCKASGYTFTDYEMHWVKQTPVHGLEWIGEIDPETGDTAYSQKFKGKATLTADKSSSTAYMEFRSLTSEDSAVYYCSRETDYFFDYWGQGTTLTVSS", "VL": "DIQMTQTPASLSASVGETVTITCGASENIYGALNWYQRKQGKSPQLLIYGATNLADGMSSRFSGSGSGRQYSLKISSLHPDDFATYYCQNVLTTPWTFGGGTKLEIKR", "notes": "chimeric: mouse variable domains on human IgG4 HC (S-to-P and L-to-E at 248) and human CL; also called Parental 3B04; 3B04 chimeric"}}, "key": {"[1]": {"biological_target": "T1, recombinant human soluble LIGHT, amino acids 74-240 (R&D Systems 664-LI-025) (human, UniProt O43557 74-240)", "T1 construct": "range 74-240; also called 74-240 LIGHT; Soluble LIGHT 74-240", "T1 chain": "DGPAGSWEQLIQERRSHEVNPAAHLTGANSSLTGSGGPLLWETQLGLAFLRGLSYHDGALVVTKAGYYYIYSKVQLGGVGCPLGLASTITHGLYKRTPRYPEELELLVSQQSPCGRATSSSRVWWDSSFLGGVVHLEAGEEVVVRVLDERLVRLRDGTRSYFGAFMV", "experiment": "native mass spectrometry, LIGHT:antibody 1:5", "protocol": "The LIGHT protein (R&D Systems 664-LI-025) was solubilised in PBS buffer at a final concentration of 4 μM, whereas the mAbs were maintained at 20 μM in PBS. The samples were buffer exchanged into ammonium acetate pH 7.4 at different concentrations via a column with a cut-off of 40 kDa prior to mass spectrometry optimisation. […] Samples were stored at 4° C. and were used within one week. The antibodies were diluted to 1 μM prior to MSanalysis. For complex formation the LIGHT protein was incubated with each antibody separately in 1:5 ratio on ice and native mass measurements were performed 30 min after incubation.\nNative mass spectroscopy was utilised to determine the ratio of mAb bound to native trimeric LIGHT. The measured mass of 3B04 (IgG4) was 147256±0.7 Da and the F19 anti-LIGHT mAb, (IgG4 mAb from EP2292663) was 147364±6.6 Da. Unlike the monoclonal antibodies the LIGHT protein was highly heterogeneous as expected, due to post-translational glycosylation. Two major populations of the light protein were recorded with measured masses of 68 kDa and 71 kDa. Both of these proteoforms are higher in mass than the theoretical trimeric mass of the protein, 62827.38 Da. […] In the case of LIGHT binding with 3B04, the stoichiometry can be assigned to one antibody per one LIGHT protein (masses of 219630±221 Da and 216960±380 were recorded)."}, "[2]": {"biological_target": "T2, human LIGHT (TNFSF14), full length, membrane-bound (214E allele) (human, UniProt O43557 1-240)", "T2 construct": "also called membrane LIGHT; human membrane LIGHT", "experiment": "flow cytometry, mAb binding to EL4 cells stably expressing human LIGHT [upper panel]"}}, "data": [{"binder": "B1", "values": [{"measurement": "stoichiometry, antibodies per LIGHT trimer", "setting": "[1]", "value": "1 antibodies per LIGHT trimer"}, {"measurement": "EC50 (read off the curve)", "setting": "[2]", "value": "~0.1", "unit": "nM"}]}]}
